Entries after “also recorded” stand apart in the source; their conditions may differ.

The nature of data set [1]: Determination of the aggregative character of the peptides by sedimentation. The format is physicochemical. The following applies: sedimentation, Garnier-Delamarche representation. The protocol:
(§1) After thawing, a pre-dilution in milli Q H2O filtered through 0.2 μm was carried out in order to obtain a solution at a concentration close to the working concentration, greater than 1.25 times. This stock solution was left to incubate for 1 hour in a water bath at 25° C., and was then assayed spectrophotometrically and adjusted to the final working concentration of 1.25 times. The polymerization was initiated by adding ¼ of the volume of 5× fibrillation buffer (50 mM MOPS, 750 mM NaCl, pH=7.2) for a final concentration of 1× fibrillation buffer (10 mM MOPS, 150 mM NaCl, PH=7.2). The samples were left to incubate for 1.5-2 hours at 25° C. in a water bath. The study of the polymerization by fluorimetry was carried out under the same conditions, except that the 5× polymerization buffer was supplemented with Thioflavin T (ThT) at 100 μM in order to be able to observe the fluorescence. • (a) Determination of the Aggregative Character of the Peptides. Once polymerized, the samples were ultracentrifuged at 100,000 g for 5 minutes at 25° C. (Beckman TL100, rotor TL-A100). The supernatants of each sample were then collected. An assay at 280 nm in triplicate of each supernatant was then carried out in the presence of 1% SDS. The concentration of the supernatant was determined using the Beer-Lambert law A=ε×1×C; ε (peptides)=1450 M^−1cm^−1. The concentration of sedimentable species in the pellet was then deduced by the difference: “total concentration of the sample—concentration of free peptide present in the supernatant”. • (b) Determination of the Amyloidogenic Character of the Peptides. Once the peptides have polymerized as previously indicated, 40 μL of peptides polymerized at a concentration of 400 μM and 800 μM were diluted in 360 μL of Thioflavin T (10 μM ThT, 1×MOPS) in a thermostatically controlled tank of 0.2×1 cm, to a final volume of 400 μL. The fluorescence of the sample was then measured immediately after dilution by recording a fluorescence spectrum (470 nm to 600 nm) at an excitation wavelength of 450 nm (Perkin Elmer LS 55, PM 750, slit10).
(§2) After prediction of their amyloidogenic character by bioinformatics, all the peptides were studied using biochemical techniques, namely sedimentation and fluorescence/ThT. The biochemical experiments were carried out at two peptide concentrations: 400 μM and 800 μM. Only the results obtained at 800 μM are presented. At this concentration, in sedimentation, the amount of sedimentable peptide after polymerization was measured and expressed as a percentage as a function of the total concentration. This value corresponds to the aggregative character of the peptides. On the other hand, the fluorescence test was used to determine their amyloidogenic character, the fluorescence value given corresponds to a normalization with respect to 1p, considering that its fluorescence is 100% (Table 4).

In data set [2] the test system is cells of the neuroblastoma line SH-SY5Y. As to the kind of experiment: Growth of SH-SY5Y neuroblastoma cells (images). The class given is cell-based. The note with it: 100 μM, 24 hours, 1×DMEM medium, 8% serum. On the procedure: The effects of three hexapeptides classified as “therapeutic” (1tp, 4tp, 6tp) and of two peptides classified as “amyloid” (7tp and 1p) on the growth of cells of the neuroblastoma line SH-SY5Y were studied after 24 hours of treatment in the presence of a hexapeptide at a concentration of 100 μM in 1×DMEM medium, 8% serum. The results obtained are presented on FIG. 10(A).

Data set [3] concerns the target T1, PHF6 peptide (VQIVYK, 1p) (Homo sapiens, UniProt P10636).
T1 construct: The polymerization of VQIVYK was initiated by adding ¼ of the volume of fibrillation buffer 5×
Nature of the data set: Effects of the derived peptides on VQIVYK polymerization by spectrofluorimetry (ThT kinetics). The format is biochemical.

The nature of data set [4]: Determination of the amyloidogenic character of the peptides by Thioflavin T fluorescence. The format is physicochemical. The following applies: ThT fluorescence, Garnier-Delamarche representation. The protocol:
as §1, §2

A short description of data set [5]: Polymerization kinetics of selected peptide alone (ThT spectrofluorimetry). The format is physicochemical. The following applies: 310 μM, ThT fluorescence. On the procedure: After thawing, a pre-dilution of the peptides of interest in sterile water was carried out in order to obtain, for each peptide, a solution at a concentration close to the working concentration. The peptides were then left to incubate at 4° C. overnight. On the day of the experiment, the peptide solutions were sonicated for 10 minutes, left to stand for one hour at room temperature, sonicated again for 10 minutes and assayed spectrophotometrically at 280 nm (8=1450 M^−1cm^−1). The UV spectra were previously normalized to 0 at 300 nm. The solutions were prepared at concentrations of peptides ¼ above that desired in the end. The polymerization of VQIVYK was initiated by adding ¼ of the volume of fibrillation buffer 5× for a final concentration of fibrillation buffer 1× (10 mM MOPS, 150 mM NaCl, pH=7.2).
The analyses were carried out on a spectrofluorometer (LS 55 from Perkin Elmer) fitted with a 4-cell rack. Black quartz cells (0.2×1.0 cm) were used. […]
The results were first smoothed over 10 points with the “smooth” option of the KaleidaGraph software. […] Finally, the results of each kinetics were normalized relative to the fluorescence intensity of the 1p control after 100 minutes of polymerization considered to be 100%.

The nature of data set [6]: Solubility of peptides in aqueous medium. The class given is physicochemical. The following applies: could not be tested at 800 μM. On the procedure:
The PHIF6 peptide (Ac-VQIVYK-NH2) as well as the derived hexapeptides were produced by Proteogenix® in an N-acetylated and C-amidated form and supplied in a lyophilized form. They are acetylated and amidated in order to better mimic the original protein. They were resuspended in milli Q water and filtered through 0.2 μm to obtain a concentration close to 5 mg/mL. After being vortexed for 15 minutes, the peptide solution was sonicated for 15 minutes at 35° C. in a sonicator water bath (Advantage-Lab AL04-04) then ultracentrifuged (Beckman TL100) at 100,000 g for 10 minutes at 20° C. The pellet containing the residual aggregates was discarded. The concentration of the supernatant was determined by measuring UV absorption at 280 nm using a molar extinction coefficient of 1450 M^−1cm^−1 in 1% SDS.

The mark [7] stands for this setting: [1p]=155 μM, [selected peptide]=310 μM, [ThT]=32 μM.

Turning to YQIVVK (Ac-YQIVVK-NH2) [6tp], in data set [1], the “aggregative character (in words)” value is reported as “weakly aggregative”. Also, in data set [2], the “effect on cell growth (number and appearance of cells)” value is reported as “did not seem to have any effect”. The “category of polymerization kinetics of 1p in the presence of peptide” value in data set [3] ([1p]=155 μM, [selected peptide]=310 μM) was “slow compared to 1p alone and which have a lower fluorescence intensity”. In data set [3] ([1p]=155 μM, [selected peptide]=310 μM, thresholds 50% rate, 100% fluorescence intensity), the “inhibitory effect on 1p (PHF6) polymerization (in words)” value was “clearly inhibited; also recorded: marked inhibitory effect; also recorded: with a strong inhibitory effect”. In data set [3] (polymerization followed for 15 hours), the “inhibitory effect over longer times” value is on record as “the inhibitory effect persisted”. Besides, in data set [4], the “amyloidogenic character (in words)” value is on record as “weakly amyloidogenic”. Besides, the “polymerization of the peptide on its own” value in data set [5] is on record as “do not polymerize on their own”.
As to Ac-VKIVYQ-NH2 [1tp, VKIVYQ], in data set [2], the “effect on cell growth (number and appearance of cells)” value is “did not seem to have any effect”. In addition, in data set [3] (setting [7]), the “fluorescence intensity (plateau / at 100 minutes) of 1p in the presence of peptide, % of 1p alone” value was 23.5% and the “maximum polymerization rate of 1p in the presence of peptide, % of 1p alone” value was determined as 12%.
For the substance Ac-YQVKIV-NH2 [16p, YQVKIV], the “solubility in aqueous medium” value in data set [6] is “low solubility”.
For the substance Ac-YQVVIK-NH2 [9tp, YQVVIK], the “solubility in aqueous medium” value in data set [6] was “low solubility”.

Source of the values: patent US20260248877A1 (Universite de Rennes, priority 2021, published 2026).
